# Assay results reported in IntAct's records for PubMed 18202720.
# B1: Type-1 angiotensin II receptor A (Rattus norvegicus (Rat)), P25095 (parent)
# chain: MALNSSAEDGIKRIQDDCPKAGRHSYIFVMIPTLYSIIFVVGIFGNSLVVIVIYFYMKLKTVASVFLLNLALADLCFLLTLPLWAVYTAMEYRWPFGNHLCKIASASVSFNLYASVFLLTCLSIDRYLAIVHPMKSRLRRTMLVAKVTCIIIWLMAGLASLPAVIHRNVYFIENTNITVCAFHYESRNSTLPIGLGLTKNILGFLFPFLIILTSYTLIWKALKKAYEIQKNKPRNDDIFRIIMAIVLFFFFSWVPHQIFTFLDVLIQLGVIHDCKISDIVDTAMPITICIAYFNNCLNPLFYGFLGKKFKKYFLQLLKYIPPKAKSHSSLSTKMSTLSYRPSDNMSSSAKKPASCFEVE
# Variants of: B1
# Conditions: with angt_human AGT
row,Variant,effect of a mutation on the interaction
1,MALNSSAEDGIKRIQDDCPKAGRHSYIFVMIPTLYSIIFVVGIFGNSLVVIVIYFYMKLKTVASVFLLNLALADLCFLLTLPLWAVYTAMEYRWPFGNHLCKIASASVSFNLYASVFLLTCLSIDRYLAIVHPMKSRLRRTMLVAKVTCIIIWLMAGLASLPAVIHRNVYFIENTNITVCAFHYESRNSTLPIGLGLTKNILGFLFPFLIILTSYTLIWKALKKAYEIQKNKPRNDDIFRIIMAIVLFFFFSWVPHQIFTFLDVLIQLGVIHDCKISDIVDTAMPIAICIAYFNNCLNPLFYGFLGKKFKKYFLQLLKYIPPKAKSHSSLSTKMSTLSYRPSDNMSSSAKKPASCFEVE [T287A],decreasing interaction

# Variants of: B1
# Conditions: with angt_human AGT
# Remark: another data set of the same source
row,Variant,effect of a mutation on the interaction
1,MALNSSAEDGIKRIQDDCPKAGRHSYIFVMIPTLYSIIFVVGIFGNSLVVIVIYFYMKLKTVASVFLLNLALADLCFLLTLPLWAVYTAMEYRWPFGNHLCKIASASVSFNLYASVFLLTCLSIDRYLAIVHPMKSRLRRTMLVAKVTCIIIWLMAGLASLPAVIHRNVYFIENTNITVCAFHYESRNSTLPIGLGLTKNILGFLFPFLIILTSYTLIWKALKKAYEIQKNKPRNDDIFRIIMAIVLFFFFSWVPHAIFTFLDVLIQLGVIHDCKISDIVDTAMPITICIAYFNNCLNPLFYGFLGKKFKKYFLQLLKYIPPKAKSHSSLSTKMSTLSYRPSDNMSSSAKKPASCFEVE [Q257A],decreasing interaction

# Variants of: B1
# Conditions: with angt_human AGT
# Remark: another data set of the same source
row,Variant,effect of a mutation on the interaction
1,MALNSSAEDGIKRIQDDCPKAGRHSYIFVMIPTLYSIIFVVGIFGNSLVVIVIYFYMKLKTVASVFLLNLALADLCFLLTLPLWAVYTAMEYRWPFGNHLCKIASASVSFNLYASVFLLTCLSIDRYLAIVHPMKSRLRRTMLVAKVTCIIIWLMAGLASLPAVIHRNVYFIENTNITVCAFHYESRNSTLPIGLGLTKNILGFLFPFLIILTSYTLIWKALKKAYEIQKNKPRNDDIFRIIMAIVLFFFFSWVPHQIFTFLDVLIQLGVIHDCKISDIVDTAMPITICIAAFNNCLNPLFYGFLGKKFKKYFLQLLKYIPPKAKSHSSLSTKMSTLSYRPSDNMSSSAKKPASCFEVE [Y292A],decreasing interaction
